# Reference: the supplement of paper PMC9112550, “Optimization of the antimicrobial peptide Bac7 by deep mutational scanning” (BMC Biology, 2022)
# System: Escherichia coli TOP10
# Assay: shrunken log2 fold change of peptide-encoding DNA abundance (4.5 h post-induction vs induction); higher = less antimicrobial activity (less host growth inhibition)
# Details: time post-induction: 4.5 h; library: site-saturation at positions 5, 18, 19, 20
# 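Further: peptides expressed intracellularly from a pBAD plasmid library in pooled LB shake-flask culture, induced with 0.3% L-arabinose, DNA abundance read by NGS, three biological replicates, DESeq2 with apeglm shrinkage.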
row,Sequence,shrunken log2 fold change
1,RRIRHRPPRLPRPRPRPMIMPRP,-0.266
2,RRIRKRPPRLPRPRPRPYLQPRP,-0.599
3,RRIRWRPPRLPRPRPRPNYQPRP,-0.365
4,RRIRNRPPRLPRPRPRPIKHPRP,-0.724
5,RRIRSRPPRLPRPRPRPDYIPRP,-0.443
6,RRIRDRPPRLPRPRPRPNATPRP,0.0821
7,RRIRTRPPRLPRPRPRPQRSPRP,0.309
8,RRIRGRPPRLPRPRPRPSVTPRP,0.708
9,RRIRRRPPRLPRPRPRPNISPRP,-0.263
10,RRIRTRPPRLPRPRPRPPGQPRP,0.622
11,RRIRERPPRLPRPRPRPKFRPRP,-0.315
12,RRIRVRPPRLPRPRPRPANDPRP,0.0219
13,RRIRDRPPRLPRPRPRPIKQPRP,-0.00204
14,RRIRFRPPRLPRPRPRPDAGPRP,0.121
15,RRIRNRPPRLPRPRPRPFCGPRP,-0.108
16,RRIRIRPPRLPRPRPRPWYIPRP,-0.0639
17,RRIRGRPPRLPRPRPRPRFYPRP,0.189
18,RRIRIRPPRLPRPRPRPGIDPRP,-0.00862
19,RRIRIRPPRLPRPRPRPFGQPRP,-0.259
20,RRIRCRPPRLPRPRPRPWDHPRP,-0.259
21,RRIRARPPRLPRPRPRPTSVPRP,0.52
22,RRIRGRPPRLPRPRPRPEDWPRP,1.45
23,RRIRTRPPRLPRPRPRPEWYPRP,0.135
24,RRIRKRPPRLPRPRPRPKAAPRP,0.142
25,RRIRHRPPRLPRPRPRPVAKPRP,-0.17

row,Sequence,shrunken log2 fold change
1,RRIRNRPPRLPRPRPRPCTVPRP,-0.8
2,RRIRHRPPRLPRPRPRPYMQPRP,-0.476
3,RRIRFRPPRLPRPRPRPPWKPRP,0.154
4,RRIRARPPRLPRPRPRPCWFPRP,0.107
5,RRIRCRPPRLPRPRPRPLCCPRP,-0.237
6,RRIRPRPPRLPRPRPRPLVCPRP,0.272
7,RRIRRRPPRLPRPRPRPAQCPRP,0.152
8,RRIRQRPPRLPRPRPRPSTWPRP,-0.116
9,RRIRQRPPRLPRPRPRPCYPPRP,-1.5
10,RRIRKRPPRLPRPRPRPRNCPRP,0.0613
11,RRIRIRPPRLPRPRPRPHTIPRP,-0.572
12,RRIRIRPPRLPRPRPRPHHLPRP,-0.221
13,RRIRYRPPRLPRPRPRPSQRPRP,-0.0178
14,RRIRIRPPRLPRPRPRPQWPPRP,0.238
15,RRIRWRPPRLPRPRPRPENFPRP,0.00343
16,RRIRYRPPRLPRPRPRPMSQPRP,-0.0802
17,RRIRCRPPRLPRPRPRPGTPPRP,0.0685
18,RRIRYRPPRLPRPRPRPLTYPRP,-0.144
19,RRIRHRPPRLPRPRPRPTCFPRP,0.0654
20,RRIRNRPPRLPRPRPRPLFAPRP,0.0932
21,RRIRWRPPRLPRPRPRPGWDPRP,0.657
22,RRIRLRPPRLPRPRPRPWKSPRP,0.0457
23,RRIRYRPPRLPRPRPRPLMKPRP,-0.179
24,RRIRCRPPRLPRPRPRPWTSPRP,-0.419
25,RRIRRRPPRLPRPRPRPYERPRP,-0.18

row,Sequence,shrunken log2 fold change
1,RRIRTRPPRLPRPRPRPTFEPRP,-0.0371
2,RRIRRRPPRLPRPRPRPTVEPRP,1.39
3,RRIRDRPPRLPRPRPRPNLMPRP,0.0913
4,RRIRSRPPRLPRPRPRPAWVPRP,0.441
5,RRIRQRPPRLPRPRPRPGCRPRP,0.342
6,RRIRMRPPRLPRPRPRPGRAPRP,1.27
7,RRIRFRPPRLPRPRPRPYDRPRP,-0.0252
8,RRIRYRPPRLPRPRPRPYSMPRP,-0.0134
9,RRIRTRPPRLPRPRPRPAGNPRP,0.00723
10,RRIRKRPPRLPRPRPRPLADPRP,0.559
11,RRIRNRPPRLPRPRPRPTDKPRP,0.008
12,RRIRNRPPRLPRPRPRPQPPPRP,0.833
13,RRIRPRPPRLPRPRPRPRCAPRP,1.73
14,RRIRRRPPRLPRPRPRPWAFPRP,0.00699
15,RRIRGRPPRLPRPRPRPYGRPRP,0.047
16,RRIRWRPPRLPRPRPRPYSVPRP,-0.55
17,RRIRGRPPRLPRPRPRPNRDPRP,0.0612
18,RRIRKRPPRLPRPRPRPLSIPRP,-0.0931
19,RRIRCRPPRLPRPRPRPIEYPRP,-0.148
20,RRIRWRPPRLPRPRPRPQGFPRP,-0.0818
21,RRIRGRPPRLPRPRPRPFQRPRP,-0.0485
22,RRIRDRPPRLPRPRPRPTLTPRP,0.717
23,RRIRSRPPRLPRPRPRPEQIPRP,0.157
24,RRIRMRPPRLPRPRPRPTIRPRP,0.0273
25,RRIRPRPPRLPRPRPRPALKPRP,0.128

row,Sequence,shrunken log2 fold change
1,RRIRPRPPRLPRPRPRPKPEPRP,0.311
2,RRIRERPPRLPRPRPRPCTFPRP,-0.129
3,RRIRLRPPRLPRPRPRPTFVPRP,-0.162
4,RRIRQRPPRLPRPRPRPLIPPRP,0.114
5,RRIRERPPRLPRPRPRPTSYPRP,-0.288
6,RRIRLRPPRLPRPRPRPHGIPRP,-0.017
7,RRIRSRPPRLPRPRPRPGFVPRP,0.287
8,RRIRVRPPRLPRPRPRPYIHPRP,-0.757
9,RRIRTRPPRLPRPRPRPVKTPRP,0.12
10,RRIRCRPPRLPRPRPRPQQIPRP,-0.168
11,RRIRTRPPRLPRPRPRPISYPRP,0.061
12,RRIRCRPPRLPRPRPRPPNAPRP,0.262
13,RRIRIRPPRLPRPRPRPVSDPRP,-0.619
14,RRIRTRPPRLPRPRPRPFNAPRP,-0.344
15,RRIRFRPPRLPRPRPRPAHCPRP,0.0781
16,RRIRERPPRLPRPRPRPHHLPRP,-0.143
17,RRIRGRPPRLPRPRPRPHASPRP,0.585
18,RRIRTRPPRLPRPRPRPYHDPRP,-0.13
19,RRIRRRPPRLPRPRPRPSKWPRP,-0.149
20,RRIRQRPPRLPRPRPRPTDLPRP,0.0327
21,RRIRVRPPRLPRPRPRPTKRPRP,0.331
22,RRIRRRPPRLPRPRPRPRCFPRP,0.474
23,RRIRERPPRLPRPRPRPQNHPRP,-0.519
24,RRIRWRPPRLPRPRPRPPCAPRP,0.563
25,RRIRPRPPRLPRPRPRPTGYPRP,-0.151

row,Sequence,shrunken log2 fold change
1,RRIRLRPPRLPRPRPRPHFKPRP,-0.367
2,RRIRNRPPRLPRPRPRPCDTPRP,-0.0137
3,RRIRTRPPRLPRPRPRPRTLPRP,-0.121
4,RRIRKRPPRLPRPRPRPCVPPRP,-0.14
5,RRIRDRPPRLPRPRPRPGWGPRP,0.687
6,RRIRSRPPRLPRPRPRPFQQPRP,0.000179
7,RRIRTRPPRLPRPRPRPWSCPRP,-0.29
8,RRIRDRPPRLPRPRPRPMCWPRP,0.564
9,RRIRVRPPRLPRPRPRPIFRPRP,0.0423
10,RRIRHRPPRLPRPRPRPNHNPRP,-0.954
11,RRIRERPPRLPRPRPRPPKTPRP,-0.124
12,RRIRVRPPRLPRPRPRPCMNPRP,-0.31
13,RRIRERPPRLPRPRPRPDLWPRP,-0.141
14,RRIRHRPPRLPRPRPRPVRLPRP,0.0217
15,RRIRLRPPRLPRPRPRPGAPPRP,0.672
16,RRIRERPPRLPRPRPRPRHMPRP,-0.0855
17,RRIRYRPPRLPRPRPRPVCNPRP,-0.649
18,RRIRWRPPRLPRPRPRPCFPPRP,-0.164
19,RRIRSRPPRLPRPRPRPAIMPRP,-0.152
20,RRIRKRPPRLPRPRPRPVGKPRP,-0.163
21,RRIRHRPPRLPRPRPRPMVFPRP,0.14
22,RRIRSRPPRLPRPRPRPPDAPRP,0.415
23,RRIRGRPPRLPRPRPRPHCEPRP,0.22
24,RRIRFRPPRLPRPRPRPMAKPRP,-0.0311
25,RRIRFRPPRLPRPRPRPWQYPRP,0.0191

row,Sequence,shrunken log2 fold change
1,RRIRWRPPRLPRPRPRPNPFPRP,0.208
2,RRIRDRPPRLPRPRPRPRNSPRP,-0.394
3,RRIRKRPPRLPRPRPRPQLCPRP,0.129
4,RRIRRRPPRLPRPRPRPQAGPRP,-9.87e-05
5,RRIRARPPRLPRPRPRPGPGPRP,1.08
6,RRIRKRPPRLPRPRPRPMVPPRP,-0.043
7,RRIRHRPPRLPRPRPRPACYPRP,-0.226
8,RRIRFRPPRLPRPRPRPAYCPRP,-0.219
9,RRIRQRPPRLPRPRPRPMTGPRP,0.0323
10,RRIRNRPPRLPRPRPRPRYNPRP,-1.04
11,RRIRGRPPRLPRPRPRPWSTPRP,0.243
12,RRIRNRPPRLPRPRPRPQDKPRP,0.0859
13,RRIRYRPPRLPRPRPRPHKLPRP,-0.188
14,RRIRVRPPRLPRPRPRPNNHPRP,-0.454
15,RRIRPRPPRLPRPRPRPSECPRP,-0.651
16,RRIRGRPPRLPRPRPRPLPVPRP,0.572
17,RRIRRRPPRLPRPRPRPRTQPRP,0.19
18,RRIRFRPPRLPRPRPRPAINPRP,-0.239
19,RRIRVRPPRLPRPRPRPKRHPRP,0.0244
20,RRIRPRPPRLPRPRPRPAIIPRP,-0.112
21,RRIRNRPPRLPRPRPRPYCNPRP,-0.672
22,RRIRHRPPRLPRPRPRPDNHPRP,-0.323
23,RRIRSRPPRLPRPRPRPFADPRP,-0.0303
24,RRIRVRPPRLPRPRPRPCKAPRP,0.033
25,RRIRWRPPRLPRPRPRPNWAPRP,-0.0835
